Data taken from patent publication US20070136897A1, “Nucleic acid molecules encoding hyperactive nucleoside di-phosphate kinase 2 and uses thereof” (priority 2005, published 2007).

T1: Arabidopsis thaliana NDPK2 C-terminal deletion mutant R230Stop (80-229aa), SEQ ID NO: 2 (Arabidopsis thaliana, UniProt O64903)
T1 sequence (O64903 80-229): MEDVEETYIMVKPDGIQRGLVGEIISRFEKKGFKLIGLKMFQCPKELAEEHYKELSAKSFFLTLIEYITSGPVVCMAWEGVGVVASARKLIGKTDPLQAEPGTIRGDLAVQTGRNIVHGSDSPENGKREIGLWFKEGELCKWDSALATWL

T2: purified native oat phytochrome A, Pfr form, P06593
T2 chain: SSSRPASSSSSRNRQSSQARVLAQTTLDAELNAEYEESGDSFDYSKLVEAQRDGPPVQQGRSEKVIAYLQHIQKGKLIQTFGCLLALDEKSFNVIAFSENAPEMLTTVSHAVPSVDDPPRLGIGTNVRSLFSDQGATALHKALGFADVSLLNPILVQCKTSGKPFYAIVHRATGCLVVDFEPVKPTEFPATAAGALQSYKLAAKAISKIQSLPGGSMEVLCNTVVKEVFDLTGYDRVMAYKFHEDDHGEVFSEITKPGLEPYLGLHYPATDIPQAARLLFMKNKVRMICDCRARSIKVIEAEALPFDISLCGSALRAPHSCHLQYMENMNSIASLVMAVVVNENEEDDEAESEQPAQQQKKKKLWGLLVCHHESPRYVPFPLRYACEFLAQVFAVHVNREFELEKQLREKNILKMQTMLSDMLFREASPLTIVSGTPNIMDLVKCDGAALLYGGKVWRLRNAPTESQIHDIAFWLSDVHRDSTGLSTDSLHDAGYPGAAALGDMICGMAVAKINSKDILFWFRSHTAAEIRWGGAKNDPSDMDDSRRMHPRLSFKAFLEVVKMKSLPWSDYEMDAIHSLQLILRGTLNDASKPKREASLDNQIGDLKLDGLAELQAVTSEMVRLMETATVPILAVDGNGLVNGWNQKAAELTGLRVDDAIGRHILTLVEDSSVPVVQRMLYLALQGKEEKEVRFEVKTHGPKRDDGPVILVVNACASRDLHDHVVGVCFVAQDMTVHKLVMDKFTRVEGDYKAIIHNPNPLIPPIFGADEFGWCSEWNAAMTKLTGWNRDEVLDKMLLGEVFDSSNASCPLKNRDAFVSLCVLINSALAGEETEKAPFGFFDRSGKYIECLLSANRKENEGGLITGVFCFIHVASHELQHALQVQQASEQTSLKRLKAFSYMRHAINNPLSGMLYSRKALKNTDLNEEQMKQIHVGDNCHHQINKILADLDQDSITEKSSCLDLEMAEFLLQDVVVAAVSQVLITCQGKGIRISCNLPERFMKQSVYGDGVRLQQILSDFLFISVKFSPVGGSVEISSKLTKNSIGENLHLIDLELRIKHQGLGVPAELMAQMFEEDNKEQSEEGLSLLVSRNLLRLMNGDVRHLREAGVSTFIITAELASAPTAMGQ

T3: purified native oat phytochrome A, Pfr form (oat, UniProt P06593 2-1129)
T3 construct: also called phyA; Pfr phytochrome
T3 sequence (looked up): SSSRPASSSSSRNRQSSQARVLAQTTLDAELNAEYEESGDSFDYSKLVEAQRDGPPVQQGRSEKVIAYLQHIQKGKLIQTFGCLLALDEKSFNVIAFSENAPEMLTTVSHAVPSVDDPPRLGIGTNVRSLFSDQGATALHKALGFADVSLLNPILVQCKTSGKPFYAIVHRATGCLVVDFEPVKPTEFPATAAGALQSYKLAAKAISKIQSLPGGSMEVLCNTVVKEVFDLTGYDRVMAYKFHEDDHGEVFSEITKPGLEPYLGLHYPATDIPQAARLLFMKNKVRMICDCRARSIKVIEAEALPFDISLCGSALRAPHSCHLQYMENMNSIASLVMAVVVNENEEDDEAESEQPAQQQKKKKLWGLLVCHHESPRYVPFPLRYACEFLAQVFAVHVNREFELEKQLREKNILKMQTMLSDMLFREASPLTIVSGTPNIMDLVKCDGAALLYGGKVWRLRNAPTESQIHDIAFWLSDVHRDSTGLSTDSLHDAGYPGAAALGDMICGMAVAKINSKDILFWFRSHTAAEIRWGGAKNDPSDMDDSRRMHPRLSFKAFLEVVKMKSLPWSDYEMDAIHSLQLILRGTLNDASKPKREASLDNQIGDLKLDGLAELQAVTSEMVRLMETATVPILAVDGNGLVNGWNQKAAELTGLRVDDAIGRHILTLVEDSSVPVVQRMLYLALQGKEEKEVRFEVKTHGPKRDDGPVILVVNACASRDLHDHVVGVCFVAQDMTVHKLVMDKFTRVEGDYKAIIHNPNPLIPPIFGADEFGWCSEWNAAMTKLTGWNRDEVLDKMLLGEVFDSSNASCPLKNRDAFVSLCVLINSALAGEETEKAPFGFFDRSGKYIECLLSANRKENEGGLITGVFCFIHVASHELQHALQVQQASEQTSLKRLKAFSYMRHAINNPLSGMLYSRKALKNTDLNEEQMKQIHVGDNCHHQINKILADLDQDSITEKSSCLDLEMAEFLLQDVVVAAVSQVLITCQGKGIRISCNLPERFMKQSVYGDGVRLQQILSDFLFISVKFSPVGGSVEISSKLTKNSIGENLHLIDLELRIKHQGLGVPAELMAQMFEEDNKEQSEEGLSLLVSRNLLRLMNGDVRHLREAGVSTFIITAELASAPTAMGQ


Legend:
[1] = molecular target: T1, Arabidopsis thaliana NDPK2 C-terminal deletion mutant R230Stop (80-229aa), SEQ ID NO: 2; assay: Km of NDPK2 mutant R230Stop for nucleotides (γ-phosphate exchange activity assay, LDH-PK-coupled); details: read-out: Km (ATP); dCDP as acceptor
Method: (§1) In studying the phytochrome binding site in NDPK2, NDPK2 mutants, including the C-terminal deletion mutants, kinase site mutant H197C, and Kpn loop mutant P175S, were made and tested in the binding assays with the Pfr form of native oat phyA (FIG. 2A). […] To investigate the mechanism of hyperactivity of these NDPK2 mutants, the nucleotide affinity was investigated.
(§2) Full-length Arabidopsis NDPK2 was prepared as previously described (Im et al., 2004). The C-terminal deletion mutants of NDPK2 were prepared by polymerase chain reactions using following primers: R230Stop (80-229aa) with 3′ primer: 5′-[…]-[…]-3′ (SmaI) (SEQ ID NO: 8); L225Stop (80-224aa) with 3′ primer: 5′-[…]-[…]

[2] = molecular target: Arabidopsis thaliana NDPK2 C-terminal deletion mutant L225Stop (80-224aa), SEQ ID NO: 3 (Arabidopsis thaliana, UniProt O64903); details: read-out: Km (ATP); dCDP as acceptor
Method: as §1, §2

[3] = substrate: Nc1nc2c(ncn2[C@@H]2O[C@H](COP(=O)(O)OP(=O)(O)O)[C@@H](O)[C@H]2O)c(=O)[nH]1; assay: purified protein, by the assay type; details: other: ATP as donor; 37.0 °C
[4] = substrate: Nc1ncnc2c1ncn2[C@@H]1O[C@H](COP(=O)(O)OP(=O)(O)OP(=O)(O)O)[C@@H](O)[C@H]1O; assay: Km of NDPK2 for nucleotides (γ-phosphate exchange activity assay, LDH-PK-coupled); type: biochemical, Arabidopsis thaliana; details: other: dCDP as acceptor; 37.0 °C
Method: NDPK proteins with a cleavable GST tag were expressed in Escherichia coli strain BL21 (DE3). The bacterial cells were induced for 4 h with 1 mM isopropyl β-D-thiogalactopyranoside (IPTG) at 310 K and then harvested by centrifugation at 4,500×g for 20 min. The cells were then resuspended in lysis buffer (1× PBS, phosphate-buffered saline) and lysed by sonication, after which the lysate was centrifuged at 16,000×g for 30 min. The resultant supernatant was applied to a glutathione-sepharose 4B affinity column pre-equilibrated with lysis buffer, after which the column was washed with ten bed volumes of lysis buffer. The GST fusion protein bound to the column was eluted with a buffer of 10 mM glutathione and 50 mM Tris-HCl (pH 8.0). GST Tags were cleaved from NDPKs by treatment with thrombin for 2 days at room temperature. The samples were then purified by size exclusion chromatography using a Superdex 200 column (Pharmacia Biotech) pre-equilibrated with a buffer of 50 mM NaCl and 10 mM Tris-HCl (pH 8.0), after which the fractions containing NDPKs were collected. […]
NDPK2 γ-phosphate exchange activity was measured as previously described (20) with minor modifications. […] NDPK2 activity was measured by monitoring the LDH-PK-coupled NADH decrease at 340 nm. […]

[5] = molecular target: T2, purified native oat phytochrome A, Pfr …
[6] = molecular target: T3, purified native oat phytochrome A, Pfr …; assay: in vitro immunoprecipitation with native oat phyA, western blot
From the text: In studying the phytochrome binding site in NDPK2, NDPK2 mutants, including the C-terminal deletion mutants, kinase site mutant H197C, and Kpn loop mutant P175S, were made and tested in the binding assays with the Pfr form of native oat phyA (FIG. 2A). […] Moreover, no interactions between Pfr phytochrome and mutants N204Stop and S199Stop were observed. […] Results from the γ-phosphate exchange activity assay were consistent with the in vitro binding assay. […] Thus, R230Stop and L225Stop were hyperactive NDPK2 that binds normally to its upstream signaling molecule, phytochrome. To investigate the mechanism of hyperactivity of these NDPK2 mutants, the nucleotide affinity was investigated. By using two natural nucleotide substrates of NDPK2, ATP and GDP, the Kₘ values were measured to examine the relationship between the nucleotide affinity and NDPK activity in NDPK2 hyperactive mutants (Table 1). […] Therefore, it appears that a higher nucleotide affinity corresponds to a higher NDPK activity.
The in vitro binding assays of phytochrome and NDPK2 were performed by incubating 10 μg of phytochrome and 20 μg of NDPK2 in TBS buffer (50 mM Tris-HCl (pH 7.5), 150 mM NaCl), containing 5 mM MgCl₂, 2 mM dCDP, 0.1% NP40 and protease inhibitors, at 4° C. for 30 min. […]

Molecule | Km [3] [mM mM] | stimulation by Pfr phytochrome in the γ-phosphate exchange activity assay [5] | further results
Nc1ncnc2c1ncn2[C@@H]1O[C@H](COP(=O)(O)OP(=O)(O)OP(=O)(O)O)[C@@H](O)[C@H]1O [ATP] | – | – | Km [1]: 211 µM; Km [2]: 213 µM
Arabidopsis thaliana nucleoside diphosphate kinase 2 (NDPK2), wild type, SEQ ID NO: 1 (Arabidopsis thaliana) (protein, hexamer) ASSSAESGIFLPHLVASMEDVEETYIMVKPDGIQRGLVGEIISRFEKKGFKLIGLKMFQCPKELAEEHYKELSAKSFFLTLIEYITSGPVVCMAWEGVGVVASARKLIGKTDPLQAEPGTIRGDLAVQTGRNIVHGSDSPENGKREIGLWFKEGELCKWDSALATWLRE | 0.231 | – | Km [4]: 0.286 mM mM
NDPK2 C-terminal deletion mutant N204Stop (enzyme, also called N204Stop (80-203aa)) MEDVEETYIMVKPDGIQRGLVGEIISRFEKKGFKLIGLKMFQCPKELAEEHYKELSAKSFFLTLIEYITSGPVVCMAWEGVGVVASARKLIGKTDPLQAEPGTIRGDLAVQTGRNIVHGSDSPE | – | mutants K214Stop, N204Stop, and S199Stop were not stimulated under the identical conditions | binding result [6]: no binding
NDPK2 C-terminal deletion mutant S199Stop (enzyme, also called S199Stop (80-198aa)) MEDVEETYIMVKPDGIQRGLVGEIISRFEKKGFKLIGLKMFQCPKELAEEHYKELSAKSFFLTLIEYITSGPVVCMAWEGVGVVASARKLIGKTDPLQAEPGTIRGDLAVQTGRNIVHG | – | mutants K214Stop, N204Stop, and S199Stop were not stimulated under the identical conditions | binding result [6]: no binding
NDPK2 C-terminal deletion mutant K214Stop (protein) MEDVEETYIMVKPDGIQRGLVGEIISRFEKKGFKLIGLKMFQCPKELAEEHYKELSAKSFFLTLIEYITSGPVVCMAWEGVGVVASARKLIGKTDPLQAEPGTIRGDLAVQTGRNIVHGSDSPENGKREIGLWF | – | mutants K214Stop, N204Stop, and S199Stop were not stimulated under the identical conditions | –
NDPK2 C-terminal deletion mutant L225Stop (protein) MEDVEETYIMVKPDGIQRGLVGEIISRFEKKGFKLIGLKMFQCPKELAEEHYKELSAKSFFLTLIEYITSGPVVCMAWEGVGVVASARKLIGKTDPLQAEPGTIRGDLAVQTGRNIVHGSDSPENGKREIGLWFKEGELCKWDSA | 0.191 | Mutants R230Stop and L225Stop were stimulated by Pfr phytochrome significantly | –
NDPK2 C-terminal deletion mutant R230Stop (protein) MEDVEETYIMVKPDGIQRGLVGEIISRFEKKGFKLIGLKMFQCPKELAEEHYKELSAKSFFLTLIEYITSGPVVCMAWEGVGVVASARKLIGKTDPLQAEPGTIRGDLAVQTGRNIVHGSDSPENGKREIGLWFKEGELCKWDSALATWL | 0.203 | Mutants R230Stop and L225Stop were stimulated by Pfr phytochrome significantly | –
